Reference: patent US20140274782A1, “AFFINITY REAGENTS AND METHODS FOR DETECTION, PURIFICATION, AND PROTEOMIC ANALYSIS OF METHYLATED PROTEINS” (The Board of Trustees of the Leland Stanford Junior …, priority 2013, published 2014)
Several values for one entry are separate records, joined by “and”; a condition that tells them apart may be missing. Equal values may be shown once.

What was measured:
3×MBT domain of L3MBTL1 = experiment: Triple SILAC pull-down, 3xMBT/3xMBTD355N ratio (cytoplasmic, nuclear and chromatin fractions of 293T cells); format: binding, human; settings: for 3xMBT/D355N UNC Heavy: experiment with UNC0638 in heavy SILAC media; for 3xMBT/D355N UNC Light: experiment with UNC0638 in light SILAC media;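 as to all read-outs here: proteins quantified with MaxQuant, requiring at least two unique peptides and quantification in both label directions, normalized to the mean of proteins from a digested loading control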
G9a and GLP = biological target: T1, G9a and GLP (Homo sapiens, UniProt Q96KQ7+Q9H9B1); experiment: Triple SILAC pull-down after UNC0638 treatment of 293T cells, DMSO/UNC0638 ratio of protein captured by 3×MBT; format: cell-based; settings: for Relative to UNC0638 UNC Heavy: UNC0638 in heavy SILAC media; for Relative to UNC0638 UNC Light: UNC0638 in light SILAC media; for Relative to UNC0638 Average: average of UNC Light and UNC Heavy experiments;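 as to all read-outs here: mass spectrometry (Q-Exactive) SILAC quantitation, DMSO/UNC0638 ratio computed after subtracting 3×MBTD355N mutant pull-down background, only proteins with at least twofold 3×MBT over mutant signal considered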
T1 construct: endogenous in cells; host or cells: HEK 293T
T1 sequence (Q96KQ7 2-1210 limits assumed): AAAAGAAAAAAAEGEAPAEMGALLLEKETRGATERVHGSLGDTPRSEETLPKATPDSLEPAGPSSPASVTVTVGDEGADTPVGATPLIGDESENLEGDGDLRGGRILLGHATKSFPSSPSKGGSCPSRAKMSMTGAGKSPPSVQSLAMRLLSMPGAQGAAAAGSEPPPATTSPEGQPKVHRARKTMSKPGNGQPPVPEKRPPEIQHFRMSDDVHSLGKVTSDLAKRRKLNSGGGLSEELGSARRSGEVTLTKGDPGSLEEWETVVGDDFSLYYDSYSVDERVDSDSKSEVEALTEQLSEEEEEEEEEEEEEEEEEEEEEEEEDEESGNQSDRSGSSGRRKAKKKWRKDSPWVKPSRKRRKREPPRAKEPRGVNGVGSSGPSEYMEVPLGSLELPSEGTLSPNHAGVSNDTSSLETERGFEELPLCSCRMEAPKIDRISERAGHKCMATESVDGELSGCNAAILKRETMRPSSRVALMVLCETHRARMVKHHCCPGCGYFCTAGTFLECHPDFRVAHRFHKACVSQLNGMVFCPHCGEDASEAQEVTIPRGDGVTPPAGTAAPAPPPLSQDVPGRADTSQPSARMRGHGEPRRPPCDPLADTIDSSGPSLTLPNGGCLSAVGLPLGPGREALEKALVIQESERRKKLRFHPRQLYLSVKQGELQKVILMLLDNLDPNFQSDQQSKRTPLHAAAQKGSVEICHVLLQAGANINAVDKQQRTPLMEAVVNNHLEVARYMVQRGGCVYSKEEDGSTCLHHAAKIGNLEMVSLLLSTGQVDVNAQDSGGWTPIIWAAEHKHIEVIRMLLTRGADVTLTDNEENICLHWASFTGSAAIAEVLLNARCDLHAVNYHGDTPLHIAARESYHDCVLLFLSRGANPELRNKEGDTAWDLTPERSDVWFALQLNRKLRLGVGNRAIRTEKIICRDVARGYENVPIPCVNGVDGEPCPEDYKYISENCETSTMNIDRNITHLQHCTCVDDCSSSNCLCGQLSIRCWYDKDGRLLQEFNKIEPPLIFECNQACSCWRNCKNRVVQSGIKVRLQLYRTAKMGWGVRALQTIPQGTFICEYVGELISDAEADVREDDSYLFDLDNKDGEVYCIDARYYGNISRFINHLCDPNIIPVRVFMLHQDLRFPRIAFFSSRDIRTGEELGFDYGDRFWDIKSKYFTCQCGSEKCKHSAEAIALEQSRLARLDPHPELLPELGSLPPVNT
T1 sequence (Q9H9B1 2-1298 limits assumed): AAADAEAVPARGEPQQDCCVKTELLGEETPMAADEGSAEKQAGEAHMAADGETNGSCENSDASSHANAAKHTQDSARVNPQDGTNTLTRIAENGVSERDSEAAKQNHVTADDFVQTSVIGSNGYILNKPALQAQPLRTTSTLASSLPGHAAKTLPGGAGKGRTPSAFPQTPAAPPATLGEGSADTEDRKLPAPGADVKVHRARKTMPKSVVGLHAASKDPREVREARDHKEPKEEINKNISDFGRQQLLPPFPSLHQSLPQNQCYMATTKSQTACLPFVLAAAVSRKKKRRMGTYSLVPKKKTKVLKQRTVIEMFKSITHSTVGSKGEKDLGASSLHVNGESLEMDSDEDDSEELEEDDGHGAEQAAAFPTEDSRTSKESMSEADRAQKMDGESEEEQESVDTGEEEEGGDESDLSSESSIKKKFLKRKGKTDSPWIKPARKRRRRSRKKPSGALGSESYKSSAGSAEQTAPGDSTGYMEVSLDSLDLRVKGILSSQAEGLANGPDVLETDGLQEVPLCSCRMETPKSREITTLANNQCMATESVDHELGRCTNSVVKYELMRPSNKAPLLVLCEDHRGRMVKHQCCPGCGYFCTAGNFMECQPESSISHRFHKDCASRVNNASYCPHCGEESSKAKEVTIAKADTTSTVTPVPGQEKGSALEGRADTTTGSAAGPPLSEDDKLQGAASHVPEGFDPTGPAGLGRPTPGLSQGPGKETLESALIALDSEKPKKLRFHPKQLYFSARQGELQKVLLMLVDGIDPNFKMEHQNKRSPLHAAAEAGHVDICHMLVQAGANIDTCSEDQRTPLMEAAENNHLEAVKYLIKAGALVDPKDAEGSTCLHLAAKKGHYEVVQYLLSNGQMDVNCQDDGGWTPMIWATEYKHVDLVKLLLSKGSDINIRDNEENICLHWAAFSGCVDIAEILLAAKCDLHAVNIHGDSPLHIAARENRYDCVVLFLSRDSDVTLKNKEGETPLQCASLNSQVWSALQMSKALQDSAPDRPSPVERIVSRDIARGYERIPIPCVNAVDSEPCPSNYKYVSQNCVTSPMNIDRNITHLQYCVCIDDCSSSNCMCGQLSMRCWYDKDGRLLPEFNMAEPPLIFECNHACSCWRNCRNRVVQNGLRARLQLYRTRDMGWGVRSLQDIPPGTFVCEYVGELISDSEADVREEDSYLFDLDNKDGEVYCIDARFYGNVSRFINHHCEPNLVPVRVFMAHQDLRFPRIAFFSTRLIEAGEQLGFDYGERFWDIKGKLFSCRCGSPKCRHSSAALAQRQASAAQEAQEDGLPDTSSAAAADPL

[1] = SILAC ratio, pull-down 3xMBT vs 3xMBTD355N
[2] = SILAC ratio DMSO/UNC0638 of protein pulled down with 3xMBT
[3] = SILAC ratio 3xMBT vs 3xMBTD355N pull-down, 293T cells, all values in log base 2
[4] = SILAC ratio DMSO relative to UNC0638, pull-down with 3xMBT, all values in log base 2

Relative to UNC0638 UNC Heavy (G9a and GLP; [2])	Relative to UNC0638 UNC Light (G9a and GLP; [2]) [log base 2]	Relative to UNC0638 Average (G9a and GLP)	Relative to UNC0638 UNC Heavy (G9a and GLP; [4]) [log base 2]	Relative to UNC0638 UNC Light (G9a and GLP; [4]) [log base 2]	Relative to UNC0638 Average (G9a and GLP; all values in log base 2) [log base 2]	Substance	3xMBT/D355N UNC Heavy (3×MBT domain of L3MBTL1; [1])	3xMBT/D355N UNC Light (3×MBT domain of L3MBTL1; [1])	3xMBT/D355N UNC Heavy (3×MBT domain of L3MBTL1; [3]) [log base 2]	3xMBT/D355N UNC Light (3×MBT domain of L3MBTL1; [3]) [log base 2]
0.54 log base 2	0.19	0.37 log base 2	–	–	–	KHDRBS1	2.03 log base 2	2.82 log base 2	–	–
0.14 log base 2	0.23	0.18 log base 2	–	–	–	LANCL1	1.33 log base 2	1.63 log base 2	–	–
0.10 log base 2	0.26	0.18 log base 2	–	–	–	MCM6	2.48 log base 2	2.53 log base 2	–	–
0.36 log base 2	0.11	0.24 log base 2	–	–	–	MDC1	2.31 log base 2	2.83 log base 2	–	–
–	–	–	0.04	−1.45	−0.70	METTL3	–	–	3.18	−0.51
0.61 log base 2	−0.25	0.18 log base 2	–	–	–	MK167	2.59 log base 2	2.26 log base 2	–	–
–	–	–	0.16	0.04	0.10	MLLT4	–	–	3.31	2.39
0.52 log base 2	−0.04	0.24 log base 2	–	–	–	MPG	1.39 log base 2	1.87 log base 2	–	–
–	–	–	−0.14	−0.46	−0.30	NBN	–	–	1.68	1.52

Continued, substance first:

Substance	Relative to UNC0638 UNC Heavy (G9a and GLP; [2])	Relative to UNC0638 UNC Light (G9a and GLP; [2]) [log base 2]	Relative to UNC0638 Average (G9a and GLP)	Relative to UNC0638 UNC Heavy (G9a and GLP; [4]) [log base 2]	Relative to UNC0638 UNC Light (G9a and GLP; [4]) [log base 2]	Relative to UNC0638 Average (G9a and GLP; all values in log base 2) [log base 2]	3xMBT/D355N UNC Heavy (3×MBT domain of L3MBTL1; [1])	3xMBT/D355N UNC Light (3×MBT domain of L3MBTL1; [1])	3xMBT/D355N UNC Heavy (3×MBT domain of L3MBTL1; [3]) [log base 2]	3xMBT/D355N UNC Light (3×MBT domain of L3MBTL1; [3]) [log base 2]
HNRNPK	0.17 log base 2 and 0.13 log base 2	0.10	0.13 log base 2 and 0.11 log base 2	–	–	–	3.13 log base 2 and 2.55 log base 2	3.64 log base 2 and 3.36 log base 2	–	–
HNRNPU	0.22 log base 2	0.28	0.25 log base 2	–	–	–	2.16 log base 2	2.39 log base 2	–	–
HSPA5	0.35 log base 2	0.05	0.20 log base 2	–	–	–	0.70 log base 2	2.32 log base 2	–	–
HSPA8	0.28 log base 2	0.06	0.17 log base 2	–	–	–	2.05 log base 2	1.48 log base 2	–	–
ILF2	0.15 log base 2	0.22	0.18 log base 2	–	–	–	3.72 log base 2	3.45 log base 2	–	–
MAP4K5	–	–	–	0.63	−0.72	−0.04	–	–	1.69	0.87
MCTS1	0.04 log base 2	0.20	0.12 log base 2	–	–	–	2.76 log base 2	2.56 log base 2	–	–
NONO	0.17 log base 2	0.16	0.17 log base 2	–	–	–	3.18 log base 2	3.75 log base 2	–	–
